According to WO2018065552A1 (dated 2018):
Numbering of substitutions follows the chain as printed. In names and notes the source's numbering stands. Values belong to the binder of their own block, whether it stands above or below them.

Biological target: T1, human CD39 endogenously expressed on Ramos human lymphoma cells (human, UniProt P49961 1-510)
T1 construct: also called NTPDase1; ENTPD1
T1 sequence: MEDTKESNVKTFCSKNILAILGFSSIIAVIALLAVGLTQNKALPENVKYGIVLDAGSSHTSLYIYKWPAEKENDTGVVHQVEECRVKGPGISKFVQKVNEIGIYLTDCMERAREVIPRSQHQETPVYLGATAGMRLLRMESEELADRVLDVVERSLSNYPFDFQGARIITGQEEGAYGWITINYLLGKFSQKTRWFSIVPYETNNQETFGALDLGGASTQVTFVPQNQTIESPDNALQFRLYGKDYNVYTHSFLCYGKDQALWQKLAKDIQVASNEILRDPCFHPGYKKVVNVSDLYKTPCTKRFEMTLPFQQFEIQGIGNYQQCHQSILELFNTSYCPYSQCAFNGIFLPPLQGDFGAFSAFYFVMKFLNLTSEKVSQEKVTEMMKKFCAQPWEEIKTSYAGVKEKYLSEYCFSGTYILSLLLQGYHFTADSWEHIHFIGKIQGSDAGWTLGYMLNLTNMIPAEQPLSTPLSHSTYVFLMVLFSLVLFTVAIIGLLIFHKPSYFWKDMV
Experiment: flow cytometry, antibody titration on Ramos cells endogenously expressing CD39

binding result: binds
B1: HH3/L0 (antibody, human IgG1, V domains shown)
VH: QVQLVQSGSELKKPGASVKVSCKASGYTFTHYGMNWVRQAPGQGLKWMGWINTYTGEPTYAQDFKGRFVFSLDTSVSTAYLQISSLKAEDTAVYYCARRRYEGNSVFYYFDYWGQGTTVTVSS
VL: DIQMTQSPSSLSASVGDRVTITCRASENIYSYFSWYQQKPGKAPKLLIYTAKTLAEGVPSRFSGSGSGTDFTLTISSLQPEDFATYYCQHHYVTPYTFGGGTKVEIK
notes: Human IgG1 N297Q, huCk; also called mAb38

binding result: no binding
B2: HH4/L0 (antibody, human IgG1, V domains shown)
VH: B1 VH with Y54E, Q62D, S105Y
VL: B1 VL
notes: Human IgG1 N297Q, huCk; HH4 has a glutamic acid substitution at Kabat residue 53; its row is lacking in this copy; If the inference holds, this is mAb39
